Test results taken from FireProtDB (doi:10.1002/pro.5560041213).

Conditions: Halorhodospira halophila, Thermal, DSC, reversible: yes, whole UniProt chain shown

B1: High-potential iron-sulfur protein isozyme 1 wild type, P04168 (protein)
chain: EPRAEDGHAHDYVNEAADASGHPRYQEGQLCENCAFWGEAVQDGWGRCTHPDFDEVLVKAEGWCSVYAPAS
Protein B1 has a Tm (pH 7, MOPS 20 mM) of 67.7 °C, a Tm (pH 9, TAPS 20 mM) of 66.4 °C and a Tm (pH 10, CAPS 20 mM) of 66.5 °C. For the same protein, the Tm (pH 11, piperidine 40 mM) was 50.3 °C.
